The text below walks through data of article PMC5314765.

The target in data set [1] is T1, Abf2p (mature) (Saccharomyces cerevisiae, UniProt Q02486 27-183).
T1 sequence: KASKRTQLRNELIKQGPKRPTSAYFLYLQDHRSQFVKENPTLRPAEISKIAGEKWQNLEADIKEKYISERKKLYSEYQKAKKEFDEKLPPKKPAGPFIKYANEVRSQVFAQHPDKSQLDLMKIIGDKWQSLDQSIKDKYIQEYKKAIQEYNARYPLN
Briefly: X-ray crystallography.

Data set [2] has as its target T1, Abf2p (mature). Description: ITC.

B1: Af2_22 5-BrU6 (dsDNA)
DNA 1: AATAATAAATTATATAATATAA
DNA 2: TTATATTATATAATTTATTATT
modifications: T6 replaced by 5-bromouracil
Turning to B1, in the data set with Abf2p (mature) [1], the binding result is recorded as “binds”.

B2: GC_22 (dsDNA)
DNA 1: GAAGATATCCGGGTCCCAATAA
DNA 2: TTATTGGGACCCGGATATCTTC
With B2, in the data set with Abf2p (mature) [2], the binding result was “binds”.
